Test [1] addresses T1, non-cleaved H3 tail peptide (H3 18-37), methylated at K27 (not fully specified; methylated K27 (degree of methylation shown only in FIG. 7C); biotinylated for the pull-down).
T1 peptide: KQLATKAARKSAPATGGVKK
The experiment in a line: fluorescence anisotropy.

Test [2] concerns the target T2, cleaved H3 tail peptide (H3 22-37), methylated at K27 (not fully specified; also: K27 methylated, degree not given here, biotinylated, site not given here).
T2 peptide: TKAARK(Me)SAPATGGVKK
The test can be described thus: fluorescence anisotropy. On the technique in general: In fluorescence polarisation assays a small probe gives low polarisation when free and higher when bound to something large.

Where no end group is shown, it is not given here.

B1: chromodomain of mouse CBX7 (other)
chain: MELSAIGEQVFAVESIRKKRVRKGKVEYLVKWKGWPPKYSTWEPEEHILDPRLVMAYEEKEERDRASGYR
One may read the Kd as the free concentration of one partner at which half of the binding sites on the other are occupied at equilibrium, for simple one-to-one binding. A low value points to higher affinity. With B1, the values for the Kd in test [1] and in test [2] were 14.5 µM and 44 µM, respectively.
